Consider 8 substances from US20110104179A1.

Common to all, as to experiment: cell-based or functional assay
Assay [1] concerns the target Arg-gingipains of P. gingivalis ATCC 33277 whole cells (Porphyromonas gingivalis ATCC 33277).
For assay [2], the target named is Lys-gingipain (Kgp) of P. gingivalis ATCC 33277 whole cells (Porphyromonas gingivalis ATCC 33277) (UniProt B2RLK2).
Assay [3] has as its target Arg- and Lys-specific proteinases of P. gingivalis ATCC 33277 whole cells (DQ BSA assay) (Porphyromonas gingivalis ATCC 33277).

For αS1-casein(11-23) (peptide), in assay [1], the Activity with ATCC33277, Arg-gingipains, peptide 100 µM alone (no inhibitor 29.23 + 0.06) is 18; the Protease activity (%), Arg assay, ATCC 33277 whole cell, peptide 100 µM came to 62%; the Protease activity (%), Arg assay, ATCC 33277 whole cell, peptide 200 µM worked out at 39%; the Protease activity (%), Arg assay, ATCC 33277 whole cell, peptide 300 µM was 38%. Also, in assay [1], the inhibition of Arg-specific proteolytic activity, whole cells, peptide 100 µM alone was found to be 40 % inhibition; the inhibition of Arg-specific proteolytic activity, whole cells, peptide and ZnCl2 in a 1:4 ratio amounted to 70 % inhibition. Further, in assay [2], the Protease activity (%), Lys assay, ATCC 33277 whole cell, peptide 100 µM is 64%; the Protease activity (%), Lys assay, ATCC 33277 whole cell, peptide 200 µM is 43%; the Protease activity (%), Lys assay, ATCC 33277 whole cell, peptide 300 µM worked out at 34%; the inhibition in the Lys-specific protease assays, whole cells, inhibitor mixture with ZnCl2 was 85 % inhibition.

In assay [1], κ-casein(117-123) (peptide) yielded an Arg-Specific Activity (%), ATCC 33277 whole cells, BApNA, peptide 200 µM of 111%; an Arg-Specific Activity (%), ATCC 33277 whole cells, BApNA, peptide 500 µM of 90%; an Arg-Specific Activity (%), ATCC 33277 whole cells, BApNA, peptide 1000 µM of 92%.

β-casein(193-209) (peptide): in assay [1], the Activity with ATCC33277, Arg-gingipains, peptide 100 µM alone (no inhibitor 29.23 + 0.06) is 20; the Protease activity (%), Arg assay, ATCC 33277 whole cell, peptide 100 µM was determined as 69%; the Protease activity (%), Arg assay, ATCC 33277 whole cell, peptide 200 µM turned out to be 50%; the Protease activity (%), Arg assay, ATCC 33277 whole cell, peptide 300 µM was 50%. In assay [1], the inhibition of Arg-specific proteolytic activity, whole cells, peptide 100 µM alone came to 30 % inhibition; the inhibition of Arg-specific proteolytic activity, whole cells, peptide and ZnCl2 in a 1:4 ratio is 70 % inhibition. For the same substance, in assay [2], the Protease activity (%), Lys assay, ATCC 33277 whole cell, peptide 100 µM turned out to be 71%; the Protease activity (%), Lys assay, ATCC 33277 whole cell, peptide 200 µM was 59%; the Protease activity (%), Lys assay, ATCC 33277 whole cell, peptide 300 µM turned out to be 49%; the inhibition in the Lys-specific protease assays, whole cells, peptide: ZnCl2 mixture stood at 90 % inhibition.

Turning to “Non-glycosylated κ-casein(106-169) (from UniProt P02668 127-190) (peptide)”, the inhibition of proteinase activity against fluorescent BSA (DQ Green BSA), whole ATCC 33277 cells, peptide 500 µM in assay [3] was determined as 60 % inhibition.

Take β-casein(193-205) (peptide): in assay [1], the inhibition of whole cell Arg-specific proteolytic activity, peptide 200 µM was found to be 15 % inhibition.

In assay [1], “κ-casein(109-137) (peptide; modification not given)” registered a Protease activity (%), Arg assay, ATCC 33277 whole cell, peptide 50 µM of 84% and a Protease activity (%), Arg assay, ATCC 33277 whole cell, peptide 100 µM of 36%.

Substance “κ-casein(106-137) (from UniProt P02668 127-158) (peptide)” returned an inhibition of protease activity in the fluorescence assay (DQ Green BSA), whole ATCC 33277 cells, peptide 500 µM in assay [3] of 37 % inhibition.

In assay [1], κ-casein(127-137) (peptide) came in with an Arg-Specific Activity (%), ATCC 33277 whole cells, BApNA, peptide 200 µM of 102%; an Arg-Specific Activity (%), ATCC 33277 whole cells, BApNA, peptide 500 µM of 97%; an Arg-Specific Activity (%), ATCC 33277 whole cells, BApNA, peptide 1000 µM of 82%.
